Experiments:
[1] = target: Opbp[1–174] fragment after deletion of TRX (Drosophila); test: cross-linking
[2] = target: Thioredoxin-tagged Opbp[114–174] (Drosophila); test: cross-linking

Row | Substance | stoichiometry N [1] | stoichiometry N [2]
1 | Opbp[1–174] fragment after deletion of TRX (domain or fragment) | 2 | 
2 | Thioredoxin-tagged Opbp[114–174] (domain or fragment) |  | 2

Source: publication PMC5716193
